# Experimental data reported in patent US20250114463A1, “LIVER-TARGETED DRUG AND USE THEREOF” (HANMI PHARM. CO., LTD., priority 2021, published 2025).
# Bridges are numbered along the chain shown (N, C = ends). Where no end group is shown, it is not given here. [ ]: non-standard residue; d: D form. The star is where a group is joined. Acetyl(2-(4-imidazolyl)) = O=C(Cc1c[nH]cn1)*; Aib = CC(C)(N)C(=O)O
# B1: triple agonist of SEQ ID NO: 6 (peptide)
# peptide: HXQGTFTSDVSSYLDGQAAKEFVAWLLKGC
# HELM: PEPTIDE1{H.[Aib].Q.G.T.F.T.S.D.V.S.S.Y.L.D.G.Q.A.A.K.E.F.V.A.W.L.L.K.G.C.[am]}$$$$V2.0; N-terminus assumed
# SMILES: CC(C)C[C@H](NC(=O)[C@H](Cc1c[nH]c2ccccc12)NC(=O)[C@H](C)NC(=O)[C@@H](NC(=O)[C@H](Cc1ccccc1)NC(=O)[C@H](CCC(=O)O)NC(=O)[C@H](CCCCN)NC(=O)[C@H](C)NC(=O)[C@H](C)NC(=O)[C@H](CCC(N)=O)NC(=O)CNC(=O)[C@H](CC(=O)O)NC(=O)[C@H](CC(C)C)NC(=O)[C@H](Cc1ccc(O)cc1)NC(=O)[C@H](CO)NC(=O)[C@H](CO)NC(=O)[C@@H](NC(=O)[C@H](CC(=O)O)NC(=O)[C@H](CO)NC(=O)[C@@H](NC(=O)[C@H](Cc1ccccc1)NC(=O)[C@@H](NC(=O)CNC(=O)[C@H](CCC(N)=O)NC(=O)C(C)(C)NC(=O)[C@@H](N)Cc1c[nH]cn1)[C@@H](C)O)[C@@H](C)O)C(C)C)C(C)C)C(=O)N[C@@H](CC(C)C)C(=O)N[C@@H](CCCCN)C(=O)NCC(=O)N[C@@H](CS)C(N)=O
# Target: T1, human GIP receptor (human, UniProt P48546 22-466)
# T1 sequence (looked up): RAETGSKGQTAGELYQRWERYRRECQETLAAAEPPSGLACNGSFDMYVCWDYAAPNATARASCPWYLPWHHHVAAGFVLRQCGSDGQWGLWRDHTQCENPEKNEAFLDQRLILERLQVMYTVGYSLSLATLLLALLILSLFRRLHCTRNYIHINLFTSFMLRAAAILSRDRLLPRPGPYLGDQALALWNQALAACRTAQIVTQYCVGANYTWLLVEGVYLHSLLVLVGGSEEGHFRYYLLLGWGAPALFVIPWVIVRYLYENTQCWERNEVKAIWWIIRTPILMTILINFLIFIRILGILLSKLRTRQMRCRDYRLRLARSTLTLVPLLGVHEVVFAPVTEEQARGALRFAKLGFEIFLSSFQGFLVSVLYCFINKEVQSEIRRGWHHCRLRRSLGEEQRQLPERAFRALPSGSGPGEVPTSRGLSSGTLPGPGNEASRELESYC
# Assay: cell-based or functional assay
row,Binder,"in vitro Activity Compared to Native Peptide (%), vs GIP"
1,B1,< 0.1%
2,H[Aib]QGTFTSDYSIAMDEIHQKDFVNWLLAQC (bridge 16-20; not fully specified (C-terminus)) [triple agonist of SEQ ID NO: 55],2.4%
3,H[Aib]QGTFTSDYSKYLDEKRQKEFVNWLLAQC (bridge 16-20; not fully specified (C-terminus)) [triple agonist of SEQ ID NO: 56],0.8%
4,H[Aib]QGTFTSDYSIAMDEIHQKDFVNWLLNTC (bridge 16-20; not fully specified (C-terminus)) [triple agonist of SEQ ID NO: 57],0.3%
5,H[Aib]QGTFTSDYSKYLDEKRQKEFVQWLLNTKC (bridge 16-20; not fully specified (C-terminus)) [triple agonist of SEQ ID NO: 58],0.2%
6,[Acetyl(2-(4-imidazolyl))][Aib]QGTFTSDYSICMDEKHQKDFVNWLLNTK (bridge 16-20; not fully specified (C-terminus)) [triple agonist of SEQ ID NO: 59],4%
7,[Acetyl(2-(4-imidazolyl))][Aib]QGTFTSDYSIAMDEKHCKDFVNWLLNTK (bridge 16-20; not fully specified (C-terminus)) [triple agonist of SEQ ID NO: 60],8.2%
8,[Acetyl(2-(4-imidazolyl))][Aib]QGTFTSDYSIAMDEIACKDFVNWLLNTK (bridge 16-20; not fully specified (C-terminus)) [triple agonist of SEQ ID NO: 61],2.8%
9,[Acetyl(2-(4-imidazolyl))][Aib]QGTFTSDKSKYLDERAAQDFVQWLLDGGPSSGAPPPS (not fully specified (C-terminus)) [triple agonist of SEQ ID NO: 62],< 0.1%
10,[Acetyl(2-(4-imidazolyl))][Aib]QGTFTSDCSKYLDERAAQDFVQWLLDGGPSSGAPPPS (not fully specified (C-terminus)) [triple agonist of SEQ ID NO: 63],< 0.1%
11,Y[Aib]QGTFTSDYSKYLDECAAKEFVQWLLDHHPSSGQPPPS (bridge 16-20; not fully specified (C-terminus)) [triple agonist of SEQ ID NO: 64],92.9%
12,H[Aib]QGTFTSDVSKYLDGQAAKEFVAWLLKGC (not fully specified (C-terminus)) [triple agonist of SEQ ID NO: 7],< 0.1%
13,H[Aib]QGTFTSDYSKCLDEKRAKEFVQWLLDHHPSSGQPPPS (bridge 16-20; not fully specified (C-terminus)) [triple agonist of SEQ ID NO: 65],11.6%
14,Y[Aib]QGTFTSDYSKYLDECRAKDFVQWLLDHHPSSGQPPPS (bridge 16-20; not fully specified (C-terminus)) [triple agonist of SEQ ID NO: 66],17.2%
15,Y[Aib]QGTFTSDYSKYLDECAAKDFVQWLLDHHPSSGQPPPS (bridge 16-20; not fully specified (C-terminus)) [triple agonist of SEQ ID NO: 67],39.8%
16,Y[Aib]QGTFTSDYSKCLDEKAAKEFVQWLLDHHPSSGQPPPS (bridge 16-20; not fully specified (C-terminus)) [triple agonist of SEQ ID NO: 68],107%
17,Y[Aib]QGTFTSDYSKCLDERAAKEFVQWLLDHHPSSGQPPPS (bridge 16-20; not fully specified (C-terminus)) [triple agonist of SEQ ID NO: 69],62.8%

# Target: human GCG receptor (human, UniProt P47871 26-477)
# Sequence (P47871 26-477): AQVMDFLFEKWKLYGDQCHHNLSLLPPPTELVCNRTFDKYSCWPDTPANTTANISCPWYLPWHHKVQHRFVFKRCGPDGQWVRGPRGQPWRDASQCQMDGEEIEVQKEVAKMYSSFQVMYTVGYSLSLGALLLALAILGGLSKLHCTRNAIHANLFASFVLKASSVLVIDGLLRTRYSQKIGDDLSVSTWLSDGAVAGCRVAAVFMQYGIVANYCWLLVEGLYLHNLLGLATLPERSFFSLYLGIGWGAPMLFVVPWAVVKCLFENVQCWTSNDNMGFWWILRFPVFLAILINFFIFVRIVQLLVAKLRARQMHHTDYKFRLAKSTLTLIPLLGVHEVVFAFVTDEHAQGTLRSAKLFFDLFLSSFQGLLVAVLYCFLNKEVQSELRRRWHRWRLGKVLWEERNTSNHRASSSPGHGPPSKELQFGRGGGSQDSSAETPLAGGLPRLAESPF
# Assay: cell-based or functional assay
row,Binder,"in vitro Activity Compared to Native Peptide (%), vs Glucagon"
1,B1,< 0.1%
2,H[Aib]QGTFTSDYSIAMDEIHQKDFVNWLLAQC (bridge 16-20; not fully specified (C-terminus)) [triple agonist of SEQ ID NO: 55],0.7%
3,H[Aib]QGTFTSDYSKYLDEKRQKEFVNWLLAQC (bridge 16-20; not fully specified (C-terminus)) [triple agonist of SEQ ID NO: 56],4.9%
4,H[Aib]QGTFTSDYSIAMDEIHQKDFVNWLLNTC (bridge 16-20; not fully specified (C-terminus)) [triple agonist of SEQ ID NO: 57],< 0.1%
5,H[Aib]QGTFTSDYSKYLDEKRQKEFVQWLLNTKC (bridge 16-20; not fully specified (C-terminus)) [triple agonist of SEQ ID NO: 58],2.6%
6,[Acetyl(2-(4-imidazolyl))][Aib]QGTFTSDYSICMDEKHQKDFVNWLLNTK (bridge 16-20; not fully specified (C-terminus)) [triple agonist of SEQ ID NO: 59],< 0.1%
7,[Acetyl(2-(4-imidazolyl))][Aib]QGTFTSDYSIAMDEKHCKDFVNWLLNTK (bridge 16-20; not fully specified (C-terminus)) [triple agonist of SEQ ID NO: 60],< 0.1%
8,[Acetyl(2-(4-imidazolyl))][Aib]QGTFTSDYSIAMDEIACKDFVNWLLNTK (bridge 16-20; not fully specified (C-terminus)) [triple agonist of SEQ ID NO: 61],< 0.1%
9,[Acetyl(2-(4-imidazolyl))][Aib]QGTFTSDKSKYLDERAAQDFVQWLLDGGPSSGAPPPS (not fully specified (C-terminus)) [triple agonist of SEQ ID NO: 62],< 0.1%
10,[Acetyl(2-(4-imidazolyl))][Aib]QGTFTSDCSKYLDERAAQDFVQWLLDGGPSSGAPPPS (not fully specified (C-terminus)) [triple agonist of SEQ ID NO: 63],< 0.1%
11,Y[Aib]QGTFTSDYSKYLDECAAKEFVQWLLDHHPSSGQPPPS (bridge 16-20; not fully specified (C-terminus)) [triple agonist of SEQ ID NO: 64],60.1%
12,H[Aib]QGTFTSDVSKYLDGQAAKEFVAWLLKGC (not fully specified (C-terminus)) [triple agonist of SEQ ID NO: 7],< 0.1%
13,H[Aib]QGTFTSDYSKCLDEKRAKEFVQWLLDHHPSSGQPPPS (bridge 16-20; not fully specified (C-terminus)) [triple agonist of SEQ ID NO: 65],25.2%
14,Y[Aib]QGTFTSDYSKYLDECRAKDFVQWLLDHHPSSGQPPPS (bridge 16-20; not fully specified (C-terminus)) [triple agonist of SEQ ID NO: 66],172%
15,Y[Aib]QGTFTSDYSKYLDECAAKDFVQWLLDHHPSSGQPPPS (bridge 16-20; not fully specified (C-terminus)) [triple agonist of SEQ ID NO: 67],46.2%
16,Y[Aib]QGTFTSDYSKCLDEKAAKEFVQWLLDHHPSSGQPPPS (bridge 16-20; not fully specified (C-terminus)) [triple agonist of SEQ ID NO: 68],8.8%
17,Y[Aib]QGTFTSDYSKCLDERAAKEFVQWLLDHHPSSGQPPPS (bridge 16-20; not fully specified (C-terminus)) [triple agonist of SEQ ID NO: 69],9.6%

# Target: human GLP-1 receptor (human, UniProt P43220 24-463)
# Assay: cell-based or functional assay
row,Binder,"in vitro Activity Compared to Native Peptide (%), vs GLP-1"
1,B1,17%
2,H[Aib]QGTFTSDYSIAMDEIHQKDFVNWLLAQC (bridge 16-20; not fully specified (C-terminus)) [triple agonist of SEQ ID NO: 55],27.1%
3,H[Aib]QGTFTSDYSKYLDEKRQKEFVNWLLAQC (bridge 16-20; not fully specified (C-terminus)) [triple agonist of SEQ ID NO: 56],57.9%
4,H[Aib]QGTFTSDYSIAMDEIHQKDFVNWLLNTC (bridge 16-20; not fully specified (C-terminus)) [triple agonist of SEQ ID NO: 57],11.7%
5,H[Aib]QGTFTSDYSKYLDEKRQKEFVQWLLNTKC (bridge 16-20; not fully specified (C-terminus)) [triple agonist of SEQ ID NO: 58],39.1%
6,[Acetyl(2-(4-imidazolyl))][Aib]QGTFTSDYSICMDEKHQKDFVNWLLNTK (bridge 16-20; not fully specified (C-terminus)) [triple agonist of SEQ ID NO: 59],40.3%
7,[Acetyl(2-(4-imidazolyl))][Aib]QGTFTSDYSIAMDEKHCKDFVNWLLNTK (bridge 16-20; not fully specified (C-terminus)) [triple agonist of SEQ ID NO: 60],106%
8,[Acetyl(2-(4-imidazolyl))][Aib]QGTFTSDYSIAMDEIACKDFVNWLLNTK (bridge 16-20; not fully specified (C-terminus)) [triple agonist of SEQ ID NO: 61],59.8%
9,[Acetyl(2-(4-imidazolyl))][Aib]QGTFTSDKSKYLDERAAQDFVQWLLDGGPSSGAPPPS (not fully specified (C-terminus)) [triple agonist of SEQ ID NO: 62],5.2%
10,[Acetyl(2-(4-imidazolyl))][Aib]QGTFTSDCSKYLDERAAQDFVQWLLDGGPSSGAPPPS (not fully specified (C-terminus)) [triple agonist of SEQ ID NO: 63],15.3%
11,Y[Aib]QGTFTSDYSKYLDECAAKEFVQWLLDHHPSSGQPPPS (bridge 16-20; not fully specified (C-terminus)) [triple agonist of SEQ ID NO: 64],64.6%
12,H[Aib]QGTFTSDVSKYLDGQAAKEFVAWLLKGC (not fully specified (C-terminus)) [triple agonist of SEQ ID NO: 7],13.7%
13,H[Aib]QGTFTSDYSKCLDEKRAKEFVQWLLDHHPSSGQPPPS (bridge 16-20; not fully specified (C-terminus)) [triple agonist of SEQ ID NO: 65],95.4%
14,Y[Aib]QGTFTSDYSKYLDECRAKDFVQWLLDHHPSSGQPPPS (bridge 16-20; not fully specified (C-terminus)) [triple agonist of SEQ ID NO: 66],15.8%
15,Y[Aib]QGTFTSDYSKYLDECAAKDFVQWLLDHHPSSGQPPPS (bridge 16-20; not fully specified (C-terminus)) [triple agonist of SEQ ID NO: 67],28.5%
16,Y[Aib]QGTFTSDYSKCLDEKAAKEFVQWLLDHHPSSGQPPPS (bridge 16-20; not fully specified (C-terminus)) [triple agonist of SEQ ID NO: 68],27.9%
17,Y[Aib]QGTFTSDYSKCLDERAAKEFVQWLLDHHPSSGQPPPS (bridge 16-20; not fully specified (C-terminus)) [triple agonist of SEQ ID NO: 69],24.3%
